From paper PMC10786891, “Massively parallel profiling of RNA-targeting CRISPR-Cas13d”

T1: EsCas13d, nuclease-dead (Eubacterium siraeum, UniProt B0MS50, R295A;H300A;R849A;H854A)
T1 sequence: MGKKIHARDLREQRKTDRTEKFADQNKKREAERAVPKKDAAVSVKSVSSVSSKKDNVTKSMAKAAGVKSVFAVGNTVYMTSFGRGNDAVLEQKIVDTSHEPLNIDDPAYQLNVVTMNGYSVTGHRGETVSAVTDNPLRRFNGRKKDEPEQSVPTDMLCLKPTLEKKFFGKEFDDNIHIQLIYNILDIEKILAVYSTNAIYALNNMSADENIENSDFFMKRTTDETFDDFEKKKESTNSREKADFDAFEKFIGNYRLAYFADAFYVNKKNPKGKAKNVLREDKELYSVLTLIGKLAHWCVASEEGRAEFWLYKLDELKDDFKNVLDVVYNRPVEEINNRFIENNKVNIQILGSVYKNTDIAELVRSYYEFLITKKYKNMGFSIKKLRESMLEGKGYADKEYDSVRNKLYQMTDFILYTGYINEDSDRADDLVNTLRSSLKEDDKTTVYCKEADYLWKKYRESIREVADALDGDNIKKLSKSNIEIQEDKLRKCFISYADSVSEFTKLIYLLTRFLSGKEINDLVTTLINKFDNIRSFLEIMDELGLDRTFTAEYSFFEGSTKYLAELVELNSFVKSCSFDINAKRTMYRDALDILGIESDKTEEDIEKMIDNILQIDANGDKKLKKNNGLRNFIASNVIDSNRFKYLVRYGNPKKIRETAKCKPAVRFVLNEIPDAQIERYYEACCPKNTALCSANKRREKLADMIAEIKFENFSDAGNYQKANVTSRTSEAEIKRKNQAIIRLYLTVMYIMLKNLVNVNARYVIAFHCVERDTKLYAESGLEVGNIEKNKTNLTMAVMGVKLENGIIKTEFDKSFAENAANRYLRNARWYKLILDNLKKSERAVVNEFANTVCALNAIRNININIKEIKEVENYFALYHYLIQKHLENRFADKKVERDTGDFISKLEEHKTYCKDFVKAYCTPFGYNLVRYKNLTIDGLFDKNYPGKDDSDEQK


biological target: T1, EsCas13d, nuclease-dead; experiment: crRNA (strand 1, pre-loaded); Mg2+; 40 mM Tris-HCl pH 7.5, 150 mM NaCl, 6 mM MgCl2, 1 mM DTT, 0.1% Tween-20, 0.2 mg/ml BSA; 25 C; 10 min per concentration, then washed; conditions: tags: His6-TwinStrep-SUMO cleaved; N-terminal SNAP kept (SNAP-Surface 488); label: 3' end held by stalled T7 RNA polymerase

| Binder | Kd [nM] |
| --- | --- |
| target 1 U3A,G17C (mixed) RNA 1: CACCCGUGCAAAAAUGCAGGGGUCUAAAACUGAGCGGAUAACCUCUCUAUGG RNA 2: GGGAAUGGAUCCACAUCUACGAAUUCGUACCAUACAGAGGUUAUCCGCACACCGAGAUCGGAAGAGCACACGU | 44 ± 4 |
| target 1 insC 3' of 3,insG 3' of 2 (mixed) RNA 1: CACCCGUGCAAAAAUGCAGGGGUCUAAAACUGAGCGGAUAACCUCUCUAUGG RNA 2: GGGAAUGGAUCCACAUCUACGAAUUCGUACCAUAGAGAGGUUAUCCGCUCCGACCGAGAUCGGAAGAGCACACGU | 11.6 ± 0.7 |
| target 1 A1C,G5C (mixed) RNA 1: CACCCGUGCAAAAAUGCAGGGGUCUAAAACUGAGCGGAUAACCUCUCUAUGG RNA 2: GGGAAUGGAUCCACAUCUACGAAUUCGUACCAUAGAGAGGUUAUCCCCUCCCCGAGAUCGGAAGAGCACACGU | 9 ± 0.7 |
| target 1 insC 3' of 18,insU 3' of 12 (mixed) RNA 1: CACCCGUGCAAAAAUGCAGGGGUCUAAAACUGAGCGGAUAACCUCUCUAUGG RNA 2: GGGAAUGGAUCCACAUCUACGAAUUCGUACCAUACGAGAGGUUUAUCCGCUCACCGAGAUCGGAAGAGCACACGU | 28.6 ± 1.7 |
| target 1 insA 3' of 22,insC 3' of 15 (mixed) RNA 1: CACCCGUGCAAAAAUGCAGGGGUCUAAAACUGAGCGGAUAACCUCUCUAUGG RNA 2: GGGAAUGGAUCCACAUCUACGAAUUCGUACACAUAGAGCAGGUUAUCCGCUCACCGAGAUCGGAAGAGCACACGU | 28.5 ± 2.2 |
| target 1 complement block 3-7 (mixed) RNA 1: CACCCGUGCAAAAAUGCAGGGGUCUAAAACUGAGCGGAUAACCUCUCUAUGG RNA 2: GGGAAUGGAUCCACAUCUACGAAUUCGUACCAUAGAGAGGUUAUGGCGACACCGAGAUCGGAAGAGCACACGU | 12.9 ± 0.8 |
| target 1 G12U,G13A (mixed) RNA 1: CACCCGUGCAAAAAUGCAGGGGUCUAAAACUGAGCGGAUAACCUCUCUAUGG RNA 2: GGGAAUGGAUCCACAUCUACGAAUUCGUACCAUAGAGAAUUUAUCCGCUCACCGAGAUCGGAAGAGCACACGU | 3.99 ± 0.22 |
| target 1 A1C,A18U (mixed) RNA 1: CACCCGUGCAAAAAUGCAGGGGUCUAAAACUGAGCGGAUAACCUCUCUAUGG RNA 2: GGGAAUGGAUCCACAUCUACGAAUUCGUACCAUUGAGAGGUUAUCCGCUCCCCGAGAUCGGAAGAGCACACGU | ~40 |
| target 1 A14C (mixed) RNA 1: CACCCGUGCAAAAAUGCAGGGGUCUAAAACUGAGCGGAUAACCUCUCUAUGG RNA 2: GGGAAUGGAUCCACAUCUACGAAUUCGUACCAUAGAGCGGUUAUCCGCUCACCGAGAUCGGAAGAGCACACGU | 31 ± 7 |
| target 1 A18U (mixed) RNA 1: CACCCGUGCAAAAAUGCAGGGGUCUAAAACUGAGCGGAUAACCUCUCUAUGG RNA 2: GGGAAUGGAUCCACAUCUACGAAUUCGUACCAUUGAGAGGUUAUCCGCUCACCGAGAUCGGAAGAGCACACGU | 26.4 ± 1.2 |
| target 1 insG 3' of 21,insA 3' of 8 (mixed) RNA 1: CACCCGUGCAAAAAUGCAGGGGUCUAAAACUGAGCGGAUAACCUCUCUAUGG RNA 2: GGGAAUGGAUCCACAUCUACGAAUUCGUACCGAUAGAGAGGUUAUACCGCUCACCGAGAUCGGAAGAGCACACGU | 64 ± 11 |
| target 1 insU 3' of 4,insU 3' of 1 (mixed) RNA 1: CACCCGUGCAAAAAUGCAGGGGUCUAAAACUGAGCGGAUAACCUCUCUAUGG RNA 2: GGGAAUGGAUCCACAUCUACGAAUUCGUACCAUAGAGAGGUUAUCCGCUUCAUCCGAGAUCGGAAGAGCACACGU | 8.56 ± 0.33 |
| target 1 insA 3' of 21,insA 3' of 19 (mixed) RNA 1: CACCCGUGCAAAAAUGCAGGGGUCUAAAACUGAGCGGAUAACCUCUCUAUGG RNA 2: GGGAAUGGAUCCACAUCUACGAAUUCGUACCAAUAAGAGAGGUUAUCCGCUCACCGAGAUCGGAAGAGCACACGU | 32.2 ± 2.4 |
| target 1 G5C (mixed) RNA 1: CACCCGUGCAAAAAUGCAGGGGUCUAAAACUGAGCGGAUAACCUCUCUAUGG RNA 2: GGGAAUGGAUCCACAUCUACGAAUUCGUACCAUAGAGAGGUUAUCCCCUCACCGAGAUCGGAAGAGCACACGU | 9.6 ± 0.4 |
| target 1 A1G,A18U (mixed) RNA 1: CACCCGUGCAAAAAUGCAGGGGUCUAAAACUGAGCGGAUAACCUCUCUAUGG RNA 2: GGGAAUGGAUCCACAUCUACGAAUUCGUACCAUUGAGAGGUUAUCCGCUCGCCGAGAUCGGAAGAGCACACGU | 24.6 ± 1.7 |
| target 1 C4G,C22U (mixed) RNA 1: CACCCGUGCAAAAAUGCAGGGGUCUAAAACUGAGCGGAUAACCUCUCUAUGG RNA 2: GGGAAUGGAUCCACAUCUACGAAUUCGUAUCAUAGAGAGGUUAUCCGGUCACCGAGAUCGGAAGAGCACACGU | 10 ± 2 |
| target 1 G5U,G15U (mixed) RNA 1: CACCCGUGCAAAAAUGCAGGGGUCUAAAACUGAGCGGAUAACCUCUCUAUGG RNA 2: GGGAAUGGAUCCACAUCUACGAAUUCGUACCAUAGAUAGGUUAUCCUCUCACCGAGAUCGGAAGAGCACACGU | 31 ± 4 |
| target 1 insG 3' of 7,insU 3' of 2 (mixed) RNA 1: CACCCGUGCAAAAAUGCAGGGGUCUAAAACUGAGCGGAUAACCUCUCUAUGG RNA 2: GGGAAUGGAUCCACAUCUACGAAUUCGUACCAUAGAGAGGUUAUCGCGCUCUACCGAGAUCGGAAGAGCACACGU | 9.6 ± 0.9 |
| target 1 A9G,U11G (mixed) RNA 1: CACCCGUGCAAAAAUGCAGGGGUCUAAAACUGAGCGGAUAACCUCUCUAUGG RNA 2: GGGAAUGGAUCCACAUCUACGAAUUCGUACCAUAGAGAGGGUGUCCGCUCACCGAGAUCGGAAGAGCACACGU | 15.1 ± 0.7 |
| target 1 insC 3' of 19,insA 3' of 13 (mixed) RNA 1: CACCCGUGCAAAAAUGCAGGGGUCUAAAACUGAGCGGAUAACCUCUCUAUGG RNA 2: GGGAAUGGAUCCACAUCUACGAAUUCGUACCAUCAGAGAGAGUUAUCCGCUCACCGAGAUCGGAAGAGCACACGU | 19.5 ± 1.7 |
| target 1 insC 3' of 9,insG 3' of 6 (mixed) RNA 1: CACCCGUGCAAAAAUGCAGGGGUCUAAAACUGAGCGGAUAACCUCUCUAUGG RNA 2: GGGAAUGGAUCCACAUCUACGAAUUCGUACCAUAGAGAGGUUACUCCGGCUCACCGAGAUCGGAAGAGCACACGU | 14.4 ± 1.2 |
| target 1 insC 3' of 11,insA 3' of 8 (mixed) RNA 1: CACCCGUGCAAAAAUGCAGGGGUCUAAAACUGAGCGGAUAACCUCUCUAUGG RNA 2: GGGAAUGGAUCCACAUCUACGAAUUCGUACCAUAGAGAGGUCUAUACCGCUCACCGAGAUCGGAAGAGCACACGU | 41.4 ± 3.2 |
| target 1 insG 3' of 16,insA 3' of 5 (mixed) RNA 1: CACCCGUGCAAAAAUGCAGGGGUCUAAAACUGAGCGGAUAACCUCUCUAUGG RNA 2: GGGAAUGGAUCCACAUCUACGAAUUCGUACCAUAGAGGAGGUUAUCCGACUCACCGAGAUCGGAAGAGCACACGU | 23.5 ± 1.5 |
| target 1 complement block 4-7 (mixed) RNA 1: CACCCGUGCAAAAAUGCAGGGGUCUAAAACUGAGCGGAUAACCUCUCUAUGG RNA 2: GGGAAUGGAUCCACAUCUACGAAUUCGUACCAUAGAGAGGUUAUGGCGUCACCGAGAUCGGAAGAGCACACGU | 12.6 ± 0.8 |
| target 1 insU 3' of 17,insG 3' of 9 (mixed) RNA 1: CACCCGUGCAAAAAUGCAGGGGUCUAAAACUGAGCGGAUAACCUCUCUAUGG RNA 2: GGGAAUGGAUCCACAUCUACGAAUUCGUACCAUAGUAGAGGUUAGUCCGCUCACCGAGAUCGGAAGAGCACACGU | 38 ± 4 |
| target 1 insC 3' of 10,insG 3' of 8 (mixed) RNA 1: CACCCGUGCAAAAAUGCAGGGGUCUAAAACUGAGCGGAUAACCUCUCUAUGG RNA 2: GGGAAUGGAUCCACAUCUACGAAUUCGUACCAUAGAGAGGUUCAUGCCGCUCACCGAGAUCGGAAGAGCACACGU | 15.7 ± 0.8 |
| target 1 insU 3' of 7,insG 3' of 6 (mixed) RNA 1: CACCCGUGCAAAAAUGCAGGGGUCUAAAACUGAGCGGAUAACCUCUCUAUGG RNA 2: GGGAAUGGAUCCACAUCUACGAAUUCGUACCAUAGAGAGGUUAUCUCGGCUCACCGAGAUCGGAAGAGCACACGU | 16.7 ± 1.3 |
| target 1 A1U,A14C (mixed) RNA 1: CACCCGUGCAAAAAUGCAGGGGUCUAAAACUGAGCGGAUAACCUCUCUAUGG RNA 2: GGGAAUGGAUCCACAUCUACGAAUUCGUACCAUAGAGCGGUUAUCCGCUCUCCGAGAUCGGAAGAGCACACGU | 45 ± 6 |
